These results are taken from patent US20250121104A1 (FUSION PHARMACEUTICALS, published 2025).

The target in experiment [1] is c-MET receptor on the cell surface (H1975 cells) (UniProt P08581). Nature of the experiment: cell-based or functional assay.
For another experiment, the target named is mouse cMET (recombinant) (mouse, UniProt P16056 25-929, limits assumed). Put plainly: ELISA, antigen coated at 1 µg/mL, antibody titrated from 10 µg/mL. Here is the method:
(§1) Specificity for EGFR and cMET species paralogs and closely related family members was determined by ELISA. Briefly, antigen solutions were prepared in PBS at 1 μg/mL and 50 microliters was coated onto half area ELISA assay plates. Plates were washed and blocked with 1% BSA in PBS containing 0.005% Tween-20 (PBS-T) for one hour at room temperature. […] Wells were incubated with 50 microliters of the indicated primary antibodies diluted in PBS-T in a 1:3 dilution series, starting at 10 μg/mL and ending at 0.002 μg/mL, except for the HER4 binding mAb control, MAB1131, for which the series started at 1 μg/mL. The wells were washed 4 times in PBS-T, then 50 μl of goat anti-human Fab HRP-labeled secondary antibody, diluted 1:5000 in PBS-T, was added to each well and incubated for one hour at room temperature. […] 50 microliters of TMB stop solution was added to all wells and the absorbance was read at 450 nm on a SpectraMax M5 microplate reader. Data were analyzed in the SoftMax Pro 5 software and plotted using GraphPad Prism 7 graphing software.
(§2) To determine the species cross reactivity, ELISA assays were carried out as described above.

Another experiment concerns the target T1, Ron (CD136) (UniProt Q04912 25-957, limits assumed).
T1 sequence (looked up): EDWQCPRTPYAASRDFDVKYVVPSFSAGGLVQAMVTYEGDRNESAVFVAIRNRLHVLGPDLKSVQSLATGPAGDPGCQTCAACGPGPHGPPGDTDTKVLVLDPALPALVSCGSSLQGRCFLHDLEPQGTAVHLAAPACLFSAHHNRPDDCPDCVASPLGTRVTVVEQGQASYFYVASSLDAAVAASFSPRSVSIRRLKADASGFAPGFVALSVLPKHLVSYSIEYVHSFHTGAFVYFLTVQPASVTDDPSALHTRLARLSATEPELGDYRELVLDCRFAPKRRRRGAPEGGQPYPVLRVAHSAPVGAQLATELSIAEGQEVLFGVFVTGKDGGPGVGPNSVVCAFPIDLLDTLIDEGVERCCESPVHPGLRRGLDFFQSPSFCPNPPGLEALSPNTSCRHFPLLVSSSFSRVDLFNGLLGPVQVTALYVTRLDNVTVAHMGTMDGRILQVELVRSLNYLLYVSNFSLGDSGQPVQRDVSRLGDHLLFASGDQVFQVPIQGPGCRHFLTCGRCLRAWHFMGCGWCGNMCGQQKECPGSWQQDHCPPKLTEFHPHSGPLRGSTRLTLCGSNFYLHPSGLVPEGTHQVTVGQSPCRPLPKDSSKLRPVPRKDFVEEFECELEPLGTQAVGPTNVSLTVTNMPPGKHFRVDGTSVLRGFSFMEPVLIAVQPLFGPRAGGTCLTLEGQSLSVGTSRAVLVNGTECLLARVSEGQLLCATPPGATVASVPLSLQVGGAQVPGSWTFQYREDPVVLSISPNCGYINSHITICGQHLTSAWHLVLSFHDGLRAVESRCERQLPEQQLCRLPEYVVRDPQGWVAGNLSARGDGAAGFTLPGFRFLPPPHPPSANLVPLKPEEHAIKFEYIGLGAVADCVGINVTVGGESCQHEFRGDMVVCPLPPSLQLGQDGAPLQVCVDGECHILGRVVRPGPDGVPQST
The experiment is described as above. Here is the method: as §1, §2

In the next experiment the target is T2, Semaphorin 3a (UniProt Q14563 21-771, limits assumed).
T2 sequence (looked up): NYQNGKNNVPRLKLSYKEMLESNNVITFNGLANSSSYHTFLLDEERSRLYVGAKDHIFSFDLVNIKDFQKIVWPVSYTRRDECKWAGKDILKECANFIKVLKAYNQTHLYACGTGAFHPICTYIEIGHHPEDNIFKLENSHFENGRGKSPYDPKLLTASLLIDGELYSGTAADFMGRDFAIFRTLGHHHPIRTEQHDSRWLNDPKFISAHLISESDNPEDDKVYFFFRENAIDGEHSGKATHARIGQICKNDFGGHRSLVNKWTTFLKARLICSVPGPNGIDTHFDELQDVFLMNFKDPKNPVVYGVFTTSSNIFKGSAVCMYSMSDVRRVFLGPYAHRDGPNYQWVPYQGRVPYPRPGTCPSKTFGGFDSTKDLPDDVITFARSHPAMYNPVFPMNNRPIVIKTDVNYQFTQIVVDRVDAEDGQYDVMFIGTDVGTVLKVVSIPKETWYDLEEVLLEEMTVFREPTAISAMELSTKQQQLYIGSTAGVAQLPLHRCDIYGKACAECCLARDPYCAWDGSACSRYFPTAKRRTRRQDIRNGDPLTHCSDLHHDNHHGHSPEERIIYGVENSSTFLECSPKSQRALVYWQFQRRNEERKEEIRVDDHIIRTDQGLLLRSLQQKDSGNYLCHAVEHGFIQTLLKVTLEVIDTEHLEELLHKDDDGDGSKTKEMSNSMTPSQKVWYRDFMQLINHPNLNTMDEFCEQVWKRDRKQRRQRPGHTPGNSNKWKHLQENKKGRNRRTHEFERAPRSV
The description is as above. Here is the method: as §1, §2

Experiment [2] concerns the target T3, cynomolgus monkey cMET (recombinant, soluble monomeric) (cynomolgus monkey, UniProt A0M8R7 25-932 (Papio anubis entry)).
T3 construct: also called cyno cMET
Put plainly: SPR (BIAcore T200), antibody captured on anti-human IgG, soluble monomeric antigen as analyte, 25 C, 1:1 fit. Here is the method: (§3) Mouse anti-human IgG was immobilized on a CM4 sensor chip with a final surface density of ˜2000 resonance units (RUs). A reference flow cell surface was also prepared on this sensor chip using identical immobilization protocol. Test and control article antibodies were prepared at 5-20 nM in instrument buffer (HBS-EP buffer; 0.01M HEPES, pH 7.4, 0.15M NaCl, 3 mM EDTA, and 0.005% P-20), along with 3-fold serial dilutions of purified EGFR (0.27-200 nM human, 0.4-900 nM cyno, and 4-1000 nM murine) or cMET proteins (0.27-66 nM human and 0.27-22 nM cyno) in instrument buffer. A sequential approach was utilized for kinetic measurements. Antibodies were first injected over the capture surface, at a flow rate of 10 μL/minute. Once the binding of the captured antibody stabilized, a single concentration of the analyte was injected over both capture and reference surfaces, at a flow rate of 75 μL/minute. The resulting binding response curves yielded the association phase data. Following the injection of analyte, the flow was then switched back to instrument buffer for 15 minutes to permit the collection of dissociation phase data, followed by a 1-minute pulse of 10 mM glycine, pH 1.5, to regenerate the antibody-captured surface on the chip. Binding responses against test and control article antibodies were recorded from duplicate injections of each concentration of analyte. In addition, several buffer injections were interspersed throughout the injection series. Select buffer injections were used along with the reference cell responses to correct the raw data sets for injection artifacts and/or nonspecific binding interactions, commonly referred to as “double referencing”. Corrected binding data were globally fit to a 1:1 binding model (Biacore T200 Evaluation software 2.0, GE Healthcare, Pittsburgh, PA).
(§4) Kinetic measurements to soluble monomeric forms of EGFR and cMET were performed using a BIACore instrument.

In experiment [3] the target is T4, human EGFR (recombinant, soluble monomeric) (human, UniProt P00533 25-645).
T4 construct: also called EGFR antigen
The description is as above. Here is the method: as §3, §4

Experiment [4] concerns the target T5, cynomolgus monkey EGFR (recombinant, soluble monomeric) (cynomolgus monkey, UniProt P55245 25-645 (rhesus entry)).
T5 construct: also called cyno EGFR
Described as above. Here is the method:
as §3, §4

Another experiment concerns the target T6, mouse EGFR (recombinant) (mouse, UniProt Q01279 25-647).
T6 construct: also called murine EGFR
Described as above. Here is the method:
as §3, §4

Experiment [5] deals with T7, human cMET (recombinant, soluble monomeric) (human, UniProt P08581 25-932).
T7 construct: also called cMET antigen; His-tagged cMET antigen
The experiment is described as above. Here is the method: as §3, §4

T7 sequence (P08581 25-932): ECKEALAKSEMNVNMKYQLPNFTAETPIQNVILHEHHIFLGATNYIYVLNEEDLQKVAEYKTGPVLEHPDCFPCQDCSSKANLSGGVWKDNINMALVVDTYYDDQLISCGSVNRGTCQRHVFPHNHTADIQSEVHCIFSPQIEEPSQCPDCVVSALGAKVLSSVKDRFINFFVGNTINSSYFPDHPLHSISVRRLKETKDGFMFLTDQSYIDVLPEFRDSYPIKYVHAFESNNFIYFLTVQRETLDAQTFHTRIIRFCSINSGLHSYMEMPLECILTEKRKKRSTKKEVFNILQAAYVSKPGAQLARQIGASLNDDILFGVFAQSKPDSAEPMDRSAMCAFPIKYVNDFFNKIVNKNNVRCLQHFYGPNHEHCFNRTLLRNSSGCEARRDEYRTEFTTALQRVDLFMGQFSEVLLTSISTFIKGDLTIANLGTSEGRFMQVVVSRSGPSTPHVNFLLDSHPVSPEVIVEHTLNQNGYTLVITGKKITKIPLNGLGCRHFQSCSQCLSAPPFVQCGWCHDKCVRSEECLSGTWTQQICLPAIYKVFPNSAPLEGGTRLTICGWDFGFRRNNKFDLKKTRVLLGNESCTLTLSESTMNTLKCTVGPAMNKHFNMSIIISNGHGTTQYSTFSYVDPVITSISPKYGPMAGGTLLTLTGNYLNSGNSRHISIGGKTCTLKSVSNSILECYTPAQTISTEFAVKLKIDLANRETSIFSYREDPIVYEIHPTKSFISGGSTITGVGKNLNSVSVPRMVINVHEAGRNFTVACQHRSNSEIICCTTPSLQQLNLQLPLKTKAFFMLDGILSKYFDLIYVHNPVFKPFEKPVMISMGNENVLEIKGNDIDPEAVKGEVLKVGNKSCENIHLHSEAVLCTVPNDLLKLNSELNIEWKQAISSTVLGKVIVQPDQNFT
T3 sequence (A0M8R7 25-932 S170N/I621T): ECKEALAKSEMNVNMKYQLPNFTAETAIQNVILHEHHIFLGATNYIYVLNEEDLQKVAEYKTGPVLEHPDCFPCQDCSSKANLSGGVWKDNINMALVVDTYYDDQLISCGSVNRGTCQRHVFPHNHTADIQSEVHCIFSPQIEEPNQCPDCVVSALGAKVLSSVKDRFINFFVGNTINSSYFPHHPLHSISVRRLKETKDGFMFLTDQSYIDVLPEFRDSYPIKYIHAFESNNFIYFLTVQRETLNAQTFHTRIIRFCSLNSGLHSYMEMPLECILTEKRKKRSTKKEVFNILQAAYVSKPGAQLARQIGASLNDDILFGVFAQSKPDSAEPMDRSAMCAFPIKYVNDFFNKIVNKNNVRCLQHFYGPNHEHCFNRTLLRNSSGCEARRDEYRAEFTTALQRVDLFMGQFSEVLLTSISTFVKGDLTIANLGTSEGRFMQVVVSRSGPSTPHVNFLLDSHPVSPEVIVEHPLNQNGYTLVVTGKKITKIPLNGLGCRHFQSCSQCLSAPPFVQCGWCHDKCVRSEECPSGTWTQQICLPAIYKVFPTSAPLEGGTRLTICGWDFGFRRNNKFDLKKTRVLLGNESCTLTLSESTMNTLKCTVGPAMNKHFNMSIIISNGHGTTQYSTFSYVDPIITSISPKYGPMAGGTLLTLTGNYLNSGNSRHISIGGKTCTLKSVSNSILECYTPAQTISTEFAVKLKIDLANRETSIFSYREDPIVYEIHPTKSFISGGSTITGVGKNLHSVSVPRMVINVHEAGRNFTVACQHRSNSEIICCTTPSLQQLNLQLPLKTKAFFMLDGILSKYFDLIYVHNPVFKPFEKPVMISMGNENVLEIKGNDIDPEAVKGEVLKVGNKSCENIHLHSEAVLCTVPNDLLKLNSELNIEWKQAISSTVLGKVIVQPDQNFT
mouse cMET (recombinant), sequence (P16056 25-929 limits assumed): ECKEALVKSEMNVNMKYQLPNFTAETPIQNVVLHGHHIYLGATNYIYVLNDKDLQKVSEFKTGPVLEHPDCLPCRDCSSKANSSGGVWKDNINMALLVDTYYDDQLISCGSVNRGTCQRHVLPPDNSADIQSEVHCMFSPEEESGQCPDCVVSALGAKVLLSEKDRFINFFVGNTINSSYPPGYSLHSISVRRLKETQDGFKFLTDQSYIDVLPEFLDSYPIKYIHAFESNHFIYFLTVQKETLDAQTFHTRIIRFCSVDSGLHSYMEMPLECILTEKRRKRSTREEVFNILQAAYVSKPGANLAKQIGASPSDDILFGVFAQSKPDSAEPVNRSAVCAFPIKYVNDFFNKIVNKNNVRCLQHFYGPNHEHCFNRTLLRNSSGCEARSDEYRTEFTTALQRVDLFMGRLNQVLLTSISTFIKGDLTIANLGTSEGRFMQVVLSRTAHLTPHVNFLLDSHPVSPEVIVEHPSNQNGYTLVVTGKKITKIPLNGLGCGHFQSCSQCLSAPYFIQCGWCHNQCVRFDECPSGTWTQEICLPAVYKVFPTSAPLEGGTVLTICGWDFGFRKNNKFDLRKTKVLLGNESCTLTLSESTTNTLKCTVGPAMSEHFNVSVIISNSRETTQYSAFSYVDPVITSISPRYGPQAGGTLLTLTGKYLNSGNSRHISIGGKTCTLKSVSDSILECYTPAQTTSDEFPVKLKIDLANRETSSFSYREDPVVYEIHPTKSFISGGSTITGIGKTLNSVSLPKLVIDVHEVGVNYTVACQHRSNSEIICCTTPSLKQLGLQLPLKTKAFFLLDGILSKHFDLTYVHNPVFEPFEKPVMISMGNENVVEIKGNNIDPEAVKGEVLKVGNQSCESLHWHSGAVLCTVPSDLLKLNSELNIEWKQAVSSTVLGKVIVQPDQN
c-MET receptor on the cell surface (H1975 cells), sequence (P08581 25-1390): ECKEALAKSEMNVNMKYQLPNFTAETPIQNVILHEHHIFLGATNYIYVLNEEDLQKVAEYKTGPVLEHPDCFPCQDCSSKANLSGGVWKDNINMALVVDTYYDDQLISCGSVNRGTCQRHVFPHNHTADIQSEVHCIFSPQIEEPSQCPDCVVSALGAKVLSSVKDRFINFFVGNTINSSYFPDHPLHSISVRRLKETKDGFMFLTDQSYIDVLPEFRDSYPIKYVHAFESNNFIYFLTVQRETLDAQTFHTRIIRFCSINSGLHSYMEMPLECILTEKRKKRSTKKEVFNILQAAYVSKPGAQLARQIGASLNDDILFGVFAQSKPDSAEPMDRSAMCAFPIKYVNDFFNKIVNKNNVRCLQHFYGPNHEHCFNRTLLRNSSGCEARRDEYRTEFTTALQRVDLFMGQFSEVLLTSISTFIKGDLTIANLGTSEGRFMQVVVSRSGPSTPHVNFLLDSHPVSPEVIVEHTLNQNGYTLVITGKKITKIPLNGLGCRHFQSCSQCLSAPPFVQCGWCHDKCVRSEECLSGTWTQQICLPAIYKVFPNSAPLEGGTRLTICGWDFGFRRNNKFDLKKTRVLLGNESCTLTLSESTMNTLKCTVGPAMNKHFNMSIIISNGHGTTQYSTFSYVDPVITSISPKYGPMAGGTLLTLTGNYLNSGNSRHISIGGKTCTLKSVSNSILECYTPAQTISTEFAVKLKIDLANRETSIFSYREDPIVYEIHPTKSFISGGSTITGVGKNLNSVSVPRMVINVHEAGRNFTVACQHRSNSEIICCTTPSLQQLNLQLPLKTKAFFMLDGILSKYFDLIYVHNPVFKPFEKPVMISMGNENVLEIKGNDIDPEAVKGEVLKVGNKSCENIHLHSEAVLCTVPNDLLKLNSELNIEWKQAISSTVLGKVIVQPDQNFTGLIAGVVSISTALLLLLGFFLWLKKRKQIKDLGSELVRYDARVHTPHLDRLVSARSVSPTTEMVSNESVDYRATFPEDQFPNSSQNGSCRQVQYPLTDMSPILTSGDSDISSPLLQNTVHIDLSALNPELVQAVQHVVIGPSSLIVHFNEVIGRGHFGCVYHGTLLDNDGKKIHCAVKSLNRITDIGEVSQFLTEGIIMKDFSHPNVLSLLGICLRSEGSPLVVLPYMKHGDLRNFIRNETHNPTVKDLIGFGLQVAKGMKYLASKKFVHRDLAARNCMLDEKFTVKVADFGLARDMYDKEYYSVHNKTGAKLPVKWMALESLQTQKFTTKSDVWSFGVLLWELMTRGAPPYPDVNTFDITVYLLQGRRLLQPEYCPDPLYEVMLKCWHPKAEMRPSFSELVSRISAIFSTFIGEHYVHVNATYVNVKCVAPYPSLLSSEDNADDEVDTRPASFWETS

B1: B09/IgG single-arm control antibody (bispecific antibody, part only; not given: non-binding control arm, V domains shown, part only)
VH: QVQLVQSGAEVKKPGASVKVSCKASGYTFTDYYIHWVRQATGQGLEWMGWMNPNSGNTGYAQKFQGRVTMTRDTSISTAYMELSSLRSEDTAVYYCARGQGYTHSWGQGTMVTVSS
VL: DIQMTQSPSTLSASVGDRVTITCRASEGIYHWLAWYQQKPGKAPKLLIYKASSLASGVPSRFSGSGSGTEFTLTISSLQPDDFATYYCQQYSNYPPTFGGGTKLEIK
As for B1, the cytoplasmic intensity (AlexaFluor647, confocal microscopy, H1975 cells): fold higher for RAA22/B09 DuetMab than for B09-IgG in experiment [1] stood at 4.7 fold.

B2: QD6/B09-57 DuetMab (bispecific antibody, V domains shown)
VH 1: QVQLVQSGAEVKKPGSSVKVSCKASGGTFSDNDFSWVRQAPGQGLEWMGAIVAVVRTETYAQKFQDRVKITADISTRTTYMELSSLRSEDTAVYYCARRLMSAISGPGAPLLMWGQGTLVTVSS
VL 1: QSALTQPRSVSGSPGQSVTISCTGTSSDVGGYNYVSWYQQHPGKAPKLMIYDVSERPSGVPDRFSGSKSGNTASLTISGLQAEDEADYYCFSYTSSDTLEIFGGGTKLTVL
VH 2: B1 VH
VL 2: B1 VL
notes: also called QD6/B09 DuetMab; QD6/B09-AlexaFluor647
Consider B2, for which the binding result with mouse cMET (recombinant), with Ron (CD136) and with Semaphorin 3a was “no binding (tested: 10 µg/mL)” each time. The Kd was 2.2 nM in [2]; 5.9 nM in experiment [3]; 2.8 nM in experiment [4]; 6.2 nM in the experiment with mouse EGFR (recombinant); 1.6 nM in experiment [5]. Moreover, the koff stood at 0.00206 s⁻¹ in experiment [2]; 0.000374 s⁻¹ in experiment [3]; 0.000585 s⁻¹ in [4]; 0.00078 s⁻¹ with mouse EGFR (recombinant); 0.000696 s⁻¹ in [5]. The kon worked out at 958000 M⁻¹ s⁻¹ in [2]; 63500 M⁻¹ s⁻¹ in experiment [3]; 210000 M⁻¹ s⁻¹ in [4]; 126000 M⁻¹ s⁻¹ with mouse EGFR (recombinant); 425000 M⁻¹ s⁻¹ in experiment [5].

B3: QD6 IgG (antibody, V domains shown)
VH: B2 VH 1
VL: B2 VL 1
notes: also called anti-EGFR antibody clone QD6
With B3, the binding result with mouse cMET (recombinant), with Ron (CD136) and with Semaphorin 3a was “no binding (tested: 10 µg/mL)” in each case.
